PMC4234702 (Cellular and molecular life sciences : CMLS, 2014)

Molecular target: the molecule itself
Assay: crystal structure

B1: cell-free expressed Δ7 DgkA (thermostabilized mutant of diacylglycerol kinase) (enzyme, Escherichia coli)
chain: ANNTTGFTRIIKAAGYSWKGLRAAWINEAAFRQEGVAVLLCVVIAAWLDVDAVTRVLLISSVMLVMIVELLNSAIEAVVDRIGSEYHELSGRAKDLGSAAVLIAIIDAVITWAILLWSHFG
stoichiometry N: 3
